assay: soluble on expression in E. coli; label from the status in PepcDB or PDB records

Sequence | soluble on expression in E. coli
MAHHHHHHMSDDDDKIYIYSDLFSKNFSDDEKDDSYEREKQVYSGSETQNAENEYSKLRAQNSTILNNYFDNDNIKNVENLKSNDPDQIDLILFPVNKNYYMNLFDGQLIENIHSIKLRKAGFYAIYVENNNNSKWDGIYFGLSRMQVELDYKLITKKNKDGGEYEKRNTSSYDNTESVQNTVGSEKEETENKNEETSNYNSNLNNEINKICKYNLDQTDILLDDSNSERRRNSKFKIKNTNYYDNLMLQNKYTNSILYDDDDDKNNTETYTCTFKTEDQIRVPSQKKKYIYLYNKYDNATLDLNVHTYMSLGMSILCKYSLLYCGKYNHIPRDPYTPFKKPVSILSLDGGGILTISTLLVLNRLEAELRKEIGSDDIKLIDCFDMVCGTSAGGLISLALLREIDLQDVSNMWPSTIKKVFEGNRNIISGIFFEGYDVNNVKDVFLERMGNKFMSSYKKFYCFVTATDVKHKPYKLFLIRNYTHKYNSINAESYDGINKVPLWLAAWATASAPTYLKGPSAEDIKKLGINIKPEIHLVDGALKASNPALIALEECARLNNKNLSTFIKEDLDTLVSIGTGQVPTKLTQSGASSKSASTFEILINSTHLLTRANDTHREVLQRLADRENTYFRFNVPHIGDIEIDSQDVRDFDLISKATQDYLFDEKFYEIKRLAHKLANNYIRSKYL | not soluble
GFRWASNATFTLNRNKVKRLAGGSTNPVTGELIDMPNMPVGWLGKENVAPRVILTEGGTMTDIYVYNELTKDNNGNIKVDAQTGGLSMHTAETPTKVGNLNANYNLGWTNNFTYKGINLGVVLSARVGGLAYSATQGVLDYYGVSSITANARDNKGVPMNNGKVDTQKYYQTIGTGEGGYGRYYLYSATNVRLQELSLSYTLPKKWLNNVANVTFGLVGRNLWMIYCKAPFDPELSASTSSNYYMNVDYFMQPSMRNIGFNVKVQF | not soluble
MKIKLEHGAGGELMEELIRDVILKNLTLNSAGGIGLEALDDGATIPFEGKHLVFTIDGHTVRPLFFPGGDIGRLAVSGTVNDLAVMGAKPLALASSLIIGEGFDSDKLEEILKSMNRTAKEVPVPIITGDTKVVEDNIEIFVITAGIGIAEKPISDAGAKVGDLVLVNGTIGDHGIALMSHREGISFETELKSDVAPIWDVVKTVADAIGWENIHAMKDPTRGGLSNALNEMARKADVGILVRESDIPIRPEVKAAGDMLGISPYDVANEGKVIMVVDREYAEDALEAMRKTEKGKDAAIIGEIIKDYPGKVILETGIGGRRFLEPPIGDPVPRVC | soluble
SQPVAITDGIYWVGAVDWNIRYFHGPAFSTHRGTTYNAYLIVDDKTALVDTVYEPFKEELIAKLKQIKDPVKLDYLVVNHTESDHAGAFPAIMELCPDAHVLCTQRAFDSLKAHYSHIDFNYTIVKTGTSVSLGKRSLTFIEAPMLHWPDSMFTYVPEEALLLPNDAFGQHIATSVRFDDQVDAGLIMDEAAKYYANILMPFSNLITKKLDEIQKINLAIKTIAPSHGIIWRKDPGRIIEAYARWAEGQGKAKAVIAYDTMWLSTEKMAHALMDGLVAGGCEVKLFKLSVSDRNDVIKEILDARAVLVGSPTINNDILPVVSPLLDDLVGLRPKNKVGLAFGAYGWGGGAQKILEERLKAAKIELIAEPGPTVQWVPRGEDLQRCYELGRKIAARIAD | soluble
KTDDPRFKIYKLAYSAFLSRITVKDVIWNKDKGIKLMDGYYWDFINDPHLLVAGGTGGGKTVLLRSILRCLAEIGVCDICDPKRADFVTMSDLSAFEGRIAFEKADIIEKFENAVTIMFARYDFVRNEMKRLGHKDMKKFYDYGLEPYFFVCDEYNALMSSLSYQEREIVDNAFTQYILLGRQVGCNAIIAMQKPSA | not soluble
MSAASTTSTPAAAAVAPQQPESLYRVVQTLGEGAFGEVLLIVNTKNPEVAAAMKKINIANKSKDFIDNIRKEYLLQKRVSAVGHDNVIRMIGMRNDPQFYYLFLEYADGGELFDKIEPDCGMSPVFAQFYFKQLICGLKFIHDNDVVHRDIKPENLLLTGTHVLKISDFGMATLYRNKGEERLLDLSCGTIPYAAPELCAGKKYRGPPVDVWSSGIVLIAMLTGELPWDRASDASQSYMGWISNTSLDERPWKKIDVRALCMLRKIVTDKTDKRATIEQIQADPWYQHNFGQVETPNGRPLKRARNNDENITCTQQAECSAKRRHLETPNEKSTLAERQNASFSQPTKTEDLLLTQHIDMSQTNSVRKKPSEIGGFLAKISNFSVNLLQRMVCRMTRFCVVTDIRSTYQKVARASEHAGFGVRETDDYRLLVTWREVSMMVSLYTMGDIPDKPRVMVDFRRSRGDGIQFKKMFMDVRNRMHEWICTDGNNWLANLGYVPRNPQIVNGGGVNVEHSASSINVDV | not soluble
MGSDKIHHHHHHMDEYNFIVEKLQELGLTKREAEVYLAILMKNGATVKDLLETLDVHQPQLYNIIQSLIRKGFIRASAGRPRVYTANDITALIDVQKMKLDSLKRILQEELGKIRENEGEEPYISYVRSLEGVLASAIETINSAEVEIRAELPYQIYKELSPYFVSALRRGINLYLLVYPTTKSFIELADFKNQIKVKTSELGNFLLIISDLHRAVYSKRRFFTIHKLPISENEVYGYIIHEKDLLLRLLNIHNNLWVKAKEIIGWIPGPEVYPKTFIDFSMALNELEALLRLGYTPIVRVLGRDVKSEYPIEVSGRVRAVNRIGIVSNFILESNEGTFTVGGFDAEIEDIEAQRVIIEKVEREGGKKP | not soluble
MSLAPCGLVPSARQLEWYNREMIAFFHFGINTFEEYVNEGDGKASTAIFNPTALDCRQWMQTLKAAGIPAAILTAKHADGFCLWPSKYTDYSVKNAAWKNGKGDVVREFVDACEEYGLKAGIYLGPHDRHEHLSPLYTTERYKEYYAHQLGELMSDYGKIWETWWDGAGADELTTPVYRHWYKIVREKQPDCVIFGTKNSYPFADVRWMGNEAGEAGDPCWATTDSVAIRDEAQYYKGLNEGMLDGDAYIPAETDVSIRPSWFYHAEEDSRVKSVRELWDIYCTSVGRNSVLLLNFPPDRRGLIHSTDSLHAALLKQGIDETFSTNLLRGAKVKATNVRGAKYSPEKMLDNEKNTYFAGKDGEVKADIIFTLPKTIEFDCLMIEEVIELGHRTTKWSVEYTVDGKNWITIPEATDKQAIGHKWIVRLAPVKAKQVRLRIQDGKACPAIHTFGVYKQSPVFKEGHHHHHH | soluble
METMCEVKVITGTSAAAEAAKLADVDVIAAYPITPQTTCVEKLAEFVANGELDAEYIKVESEHSAMSACIGAAATGARTFTATASQGLALMHEMLFIASGMRLPIVMMVANRALSAPINIWNDHQDSIAERDSGWIQIYVEDNQETLDSIIQAYKIAENEDVLLPVMVCLDGFILTHTVEPVTIPKAERVREFLGVYEPKHAYLDPDRPITQGPVGVPDCYMETRKQIEEAMERAKKVIRDVNEEFAEWFKRKY | not soluble
MGSDKIHHHHHHMDSSCSPKHGWFDSVAESYAQQRPYYPESLFTWISSKAASHQRCWDVACGSGQASLGLARHFDRVDASDLSPAQVAAAPAHSNIHYQVAAAEDSGFPNACMDAIVVAAAIHWLDVPRFNEEALKVARPGGLMVWVGYDPPQGAPPALQLWLDQLYSERLSSWWPPQRHHVDNHYQNLPFPTISKTLPQELCISLKWSCEQLIGYIGTWSALRKATQEGHDLLPQLSMELQRLWPADQKTIPLIFPLMGRWGYLAR | not soluble
MGSDKIHHHHHHMPRYQHIARQLKTAIEQGELAPGTRLPSSRTWAQELGVSRATVENAYGELVAQGWLERRGQAGTFVSNALRFETAPPIPAVFAGESPEPKPFQMGLPALDLFPREKWARVMGRRLRTQTCFDLALGDVCGEAILRQAIVDYLRVSRSIECLPEQVFITSGYADSMRLILRTLSVPGDSMWVEDPGFPLIRPVITQEGITLAPIPVDADGLNVAAGMRDCPQGRFALVTPAHQSPLGVALSLTRRRQLLAWAANVQAWIIEDDYDSEFRYHGKPLPPLKSLDAPQRVIYAGTFSKSLFPALRTAWLVVPIKQIEHFRQQASLMPCSVPLLWQHTLADFIRDGHFWRHLKKMRQHYAQRRLWIEEALAEQGFVVTLQKGGIQLVIEVEGDDKAQVAKANQAGLAVQALSRWRVVSSGKGGILLSFTNITSAGMAKQVACQLRQAIQ | not soluble
MGSSHHHHHHSSGRENKYFQGHMRNVALITGITGQDGSYLAEFLLEKGYEVHGIVRRSSSFNTGRIEHLYKNPQAHIEGNMKLHYGDLTDSTCLVKIINEVKPTEIYNLGAQSHVKISFDLAEYTADVDGVGTLRLLDAVKTCGLINSVKFYQASTSELYGKVQEIPQKETTPFYPRSPYGAAKLYAYWIVVNFREAYNLFAVNGILFNHESPRRGANFVTRKISRSVAKIYLGQLECFSLGNLDAKRDWGHAKDYVEAMWLMLQNDEPEDFVIATGEVHSVREFVEKSFLHIGKTIVWEGKNENEVGRCKETGKVHVTVDLKYYRPTEVDFLQGDCTKAKQKLNWKPRVAFDELVREMVHADVELMRTNPNAGS | soluble
LSSKYSRNTELRRVEDNDIYRLAKILDENSCWRKLMSIIPKGMDVQACSGAGCLNFPAEIKKGFKYTAQDVFQIDEAANRLPPDQSKSQMMIDEWKTSGKLNERPTVGVLLQLLVQAELFSAADFVALDFLNESTPARPVDGPGALISLELLE | soluble
GPGSMVGPYNSKAGVVLVCDIFGLLPNSKRFADVLAEHGFLVAMPDFFGPLAWPESEWPADFQSMRWLQYVEKITQFDAFVPQMEAAIAVLRQMGCAKVGAIGMCWGAALPFMMAAQGKIDAAAAAHPSFFTADAVRAAKTPVLVLPSKDEPPMDDVEAAVNSHPMEPHVHKRFDALHHGFFGARYNPDAYTAEELKDVETARQLVLDFFKKSLH | not soluble
MGHHHHHHSHMIINWNQVSVLWKCLLKQSASYQDRRQSWRRASMKETNRRKSLHPIHQGITELSRSISVDLAESKRLGCLLLSSFQFSIQKLEPFLRDTKGFSLESFRAKASSLSEELKHFADGLETDGTLQKCFEDSNGKASDFSLEASVAEMKEYITKFSLERQTWDQLLLHYQQEAKEILSRGSTEAKITEVKVEPMTYLGSSQNEVLNTKPDYQKNYRTRAKSLTVWSW | not soluble
ESICLIGHSLGGDLARYFASEFEEVKKLILLDGGYLDLDKILPLDTELEETKNYIKSQIVSDLDVLTSKEKSEAKHWSENMEKAVRQSYHWNVEYNRYELAINYENIEAILRLRRKIQAFKREVGDTLFISPRYPNEATWREEALKELPDYFDTIFLENFGHELYTQAPKEIASLMNEWLAYFL | not soluble
MSLTRIQLVISDVDGTLVTTDKRLTDRARDAVSRLEASGVGFTLTSSRPPVGMRMYSDPLGITLPLGPFNGSSIVTPTLDVLEQHLIPDSAATISIELFERSGIDIWLFTNDNWYIRRDDGKYVVHEERTIRFSPTMAEDLTPFAGKACKIVGVSADFALLKRCEPELQAALGDRALAVRSQDYYLDVTPPGRSKGTFVATMAERLGIAADAIATIGDMQNDLPMFGVSGLPIAMGNAADDIKQQAAHVTGRNDDDGFAAAIDFILEHNARVGEGHHHHHH | soluble

Source: the DeepSol protein solubility set
